Experimental data as given in the supplement of paper PMC10567573.

B1: SLC35F2 (parent)
chain: FVAFALCMFCLYSFMPLVIKVTSA

Variants of: B1
Assay: protein stability index of a GFP-peptide fusion (GPS, HEK-293T) (PSI 1-6); higher = more stable
Settings: c terminus: a fixed tail appended
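Also: lentivirally expressed fusions sorted by FACS into six bins by GFP to DsRed ratio, PSI derived from sequencing read proportions per bin multiplied by bin number.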

Protein stability index of substitutions, site by site:
V21: E 3.06; Q 1.85; N 4.29; W 3.02; L 2.06; A 2.26; M 3.27; P 2.76; S 3.11; H 2.9; F 2.01; Y 3.26; C 1.7; R 2.38; I 2.6
I19: Q 3.62; S 2.42; M 2.48; F 2.69; G 3.04; T 3.51; V 3.21; H 2.14; W 4.11; C 2.7; L 3.06; D 2.73; E 2.87; P 2.86; Y 1.94; K 3.47
T22: L 3.31; N 3.68; S 2.33; V 3.01; H 3.96; Y 2.75; G 2.96; I 2.71; Q 3.07; C 2.54; P 3.35; R 3.29; A 2.77; W 2.77; E 3.47; F 2.36; D 2.05
L17: M 3.65; F 2.35; A 2.46; H 2.77; I 2.03; C 1.91; P 2.71; R 2.36; N 1.58; E 2.38; T 2.34; Y 3.6; W 2.18; K 4.14; Q 3.99; V 3.13; D 2.8; G 2.43
K20: G 2.9; V 2.56; P 2.56; R 3.56; M 2.62; H 1.78; Q 3.38; Y 2.76; T 3.12; A 2.95; C 3.38; D 2.22; S 2.55; L 3.04; E 2.71; N 3.16; I 2.63; F 2.03
S23: A 2.39; C 2.9
V18: I 2.35; W 2.6; T 2.57; M 2.51; H 2.9; S 2.91; R 3.05; F 2.85; C 3.04; E 2.87; Q 4.26; G 3.68; L 2.65; N 3.17; D 3.27; K 2.63; P 3.36; A 2.91; Y 2.54
S13: V 3.39; Q 2.36; Y 2.33; R 3.03; W 2.54; T 2.97
P16: C 3.1; N 3.51; S 3.48; E 1.85; K 2.06; Q 2.65; L 2.86; T 2.05; D 2.99; W 2.66; H 3.01; V 1.69; I 2.99; R 2.79; A 3.6; F 2.59; Y 4.47; G 2.85; M 1.92
M15: N 3.43; G 2.42; W 2.1; R 2.98; D 3.13; P 4.92; F 3.1; L 3.33; E 2.25; Q 3.41; T 2.83; S 2.61; H 2.97; K 3.67; C 3.39; Y 3.23; V 2.71; I 3.14
F14: I 3.99; R 3.4; Y 2.41; V 3.79; P 2.46; D 3.53; A 2.78; C 2.43; M 2.52; L 3.56; E 2.86; T 2.91; Q 2.31; G 3.38; S 3.81; N 2.27; K 2.77; H 3.63; W 3.16
